Data on 16 molecules can be found in patent US20240084011A1.

To fix the notation:
B1: 78-8D14 scFv (scFv, part only; not given: Linker, domain order, 3xFLAG tag, V domains shown, not shown: another chain or arm of the molecule; small tags and cut ends)
VH: EVQLVESGGGLVQPGGSLRLSCAASGFTFSSYVMHWVRQAPGKGLEWVSAISWSGRGTYYADSVKGRFTISRDNSKNTLYLQMNSLRAEDTAVYYCARGRLFGLARYGEAFDVWGQGTLVTVSS
VL: DIQMTQSPSSLSASVGDRVTITCQASRDISNYLNWYQQKPGKAPKLLIYDASNLETGVPSRFSGSGSGTDFTFTISSLQPEDIATYYCQQFNSFPLTFGQGTKVEIK
B2: 78-8D2 scFv (scFv, part only; not given: Linker, domain order, 3xFLAG tag, V domains shown, not shown: another chain or arm of the molecule; small tags and cut ends)
VH: B1 VH with S52T, R106L
VL: B1 VL with R27K, T74I
B3: 78-24D1 scFv (scFv, part only; not given: Linker, domain order, 3xFLAG tag, V domains shown, not shown: another chain or arm of the molecule; small tags and cut ends)
VH: EVQLVESGGGLVQPGGSLRLSCAASGFTFTSYSMHWVRQAPGKGLEWVSGISGSGRSTSYADSVKGRFTISRDNSKNTLYLQMNSLRAEDTAVYYCARDLMAFNLTRAGGFDVWGQGTLVTVSS
VL: B1 VL with R27Q, Y32F, F91G, N92D, S93A, F94W, L96W
B4: 78-24D12 scFv (scFv, part only; not given: Linker, domain order, 3xFLAG tag, V domains shown, not shown: another chain or arm of the molecule; small tags and cut ends)
VH: B3 VH with T30S, R56L, A108T
VL: B1 VL with R27H, S30L, F91G, N92H, S93A, F94W, P95L, L96W
B5: 78-8D7 scFv (scFv, part only; not given: Linker, domain order, 3xFLAG tag, V domains shown, not shown: another chain or arm of the molecule; small tags and cut ends)
VH: B1 VH with R56A, L104R, R106L
VL: B1 VL with R27K, N31I, S52F, P59S
B6: 78-8D10 scFv (scFv, part only; not given: Linker, domain order, 3xFLAG tag, V domains shown, not shown: another chain or arm of the molecule; small tags and cut ends)
VH: MEVQLVESGGGLVQPGGSLRLSCAASGFTFSSYVMHWVRQAPGKGLEWVSAISWSGRGTYYADSVKGRFTISRDNSKNTLYLQMNSLRAEDTAVYYCARGRLFGLALYGEAFDVWGQGTLVTVSS
VL: B1 VL with R27K
B7: 78-8D4 scFv (scFv, part only; not given: Linker, domain order, 3xFLAG tag, V domains shown, not shown: another chain or arm of the molecule; small tags and cut ends)
VH: B1 VH with S52T, R56G, A105V
VL: B1 VL with R27K
B8: 78-24D9 scFv (scFv, part only; not given: Linker, domain order, 3xFLAG tag, V domains shown, not shown: another chain or arm of the molecule; small tags and cut ends)
VH: B3 VH with T30S, Y32S, S54W, R56G, D99Y, A102S, A108T, G110W
VL: B1 VL with R27Q, S30A, F91S, N92D, S93A, F94W, L96W
B9: 78-8 scFv (scFv, part only; not given: Linker, domain order, 3xFLAG tag, V domains shown, not shown: another chain or arm of the molecule; small tags and cut ends)
VH: B1 VH with W53G, R56G, F102I, R106L
VL: B1 VL with R27K
B10: 78-8D6 scFv (scFv, part only; not given: Linker, domain order, 3xFLAG tag, V domains shown, not shown: another chain or arm of the molecule; small tags and cut ends)
VH: B1 VH with A23V, R56G, R106L
VL: B1 VL with R27K, D50N
B11: 78-8D22 scFv (scFv, part only; not given: Linker, domain order, 3xFLAG tag, V domains shown, not shown: another chain or arm of the molecule; small tags and cut ends)
VH: B1 VH with R56S
VL: B1 VL with R27K, P95A
B12: 78-24D8 scFv (scFv, part only; not given: Linker, domain order, 3xFLAG tag, V domains shown, not shown: another chain or arm of the molecule; small tags and cut ends)
VH: B3 VH with E6K, T30S, A108T
VL: B1 VL with R27Q, S76N, F91G, N92D, S93A, F94W, L96W
B13: 78-8D5 scFv (scFv, part only; not given: Linker, domain order, 3xFLAG tag, V domains shown, not shown: another chain or arm of the molecule; small tags and cut ends)
VH: B1 VH with R56G, R106L
VL: B1 VL with R27K
B14: 78-24D17 scFv (scFv, part only; not given: Linker, domain order, 3xFLAG tag, V domains shown, not shown: another chain or arm of the molecule; small tags and cut ends)
VH: B3 VH with T30S, Y32S, R56G, D99Y, A102S, A108T, G109S, G110W
VL: B1 VL with R27Q, D28A, F91G, N92D, S93A, F94W, L96W
B15: 78-36 scFv (scFv, part only; not given: Linker, domain order, 3xFLAG tag, V domains shown, not shown: another chain or arm of the molecule; small tags and cut ends)
VH: MEVQLVESGGGLVQPGGSLRLSCVASGFTFSSYYMHWVRQAPGKGLEWVSAISGSGGSTYYADSVKGRFTISRDNSKNTLYLQMNSLRAEDTAVYYCARGRQVGKSSFGEAFDVWGQGTLVTVSS
VL: B1 VL with R27Q, N92T, L96Y
B16: 78-28 scFv (scFv, part only; not given: Linker, domain order, 3xFLAG tag, V domains shown, not shown: another chain or arm of the molecule; small tags and cut ends)
VH: EVQLVESGGGLVQPGGSLRLSCAASGFTFSSYYMHWVRQAPGKGLEWVSAIYGNGGYTYYADSVKGRFTISRDNSKNTLYLQMNSLRAEDTAVYYCARGRPARHQVGFDVWGQGTLVTVSS
VL: B1 VL with R27L, F91L, N92Y, S93T, F94V

Where a chain is given by its changes, count along the chain named.

A word on the Kd: it is the constant that tells how readily two partners part at equilibrium.

The first assay deals with recombinant human CTLA-4 protein (human) (UniProt P16410). The assay can be described thus: SPR (Pioneer FE, OneStep), 25 C; 3xFLAG scFv captured by anti-FLAG M2, human CTLA-4 as analyte.
Sequence of recombinant human CTLA-4 protein (human) (P16410 36-161 limits assumed): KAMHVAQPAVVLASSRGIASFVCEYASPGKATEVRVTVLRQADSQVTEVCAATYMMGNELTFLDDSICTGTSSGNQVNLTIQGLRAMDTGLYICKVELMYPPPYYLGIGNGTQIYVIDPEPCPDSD
On to B1, for which the Kd worked out at 320 pM.
On the same count and under the same terms, for B2 the value was 370 pM.
For the molecule B3, the Kd turned out to be 1150 pM.
On to B4, for which the dissociation constant Kd was 2880 pM.
B5: the Kd came out at 300 pM.
The same measure, in the same setting: for B6 the value was 580 pM; for B7, 210 pM; for B8, 1180 pM.
As to B9, the Kd was determined as 168000 pM.
Same read-out and setting: as for B10, the figure is 240 pM; as for B11, 160 pM.
Same read-out and setting: as for B12, the figure is 1460 pM; as for B13, 740 pM.
Still for that read-out and setting: for B14 the value was 870 pM.

For another assay, the target named is recombinant mouse CTLA-4 protein (mouse) (UniProt P09793). The assay can be described thus: SPR (Pioneer FE, OneStep), 25 C; 3xFLAG scFv captured by anti-FLAG M2, mouse CTLA-4 as analyte.
Sequence of recombinant mouse CTLA-4 protein (mouse) (P09793 36-161 limits assumed): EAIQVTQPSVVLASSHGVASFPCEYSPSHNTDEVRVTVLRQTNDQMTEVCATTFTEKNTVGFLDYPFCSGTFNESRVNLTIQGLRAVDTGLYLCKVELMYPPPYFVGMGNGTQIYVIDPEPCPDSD
As to B1, the Kd is 170 pM.
With B15, the equilibrium dissociation constant (Kd) was found to be 980 pM.
With B16, the Kd was 2570 pM.
In the case of B2, the dissociation constant (Kd) turned out to be 300 pM.
On the same count and under the same terms, as for B3, the figure is 59 pM; as for B4, 10 pM.
With B5, the Kd was 390 pM.
Same read-out and setting: as for B6, the figure is 490 pM; as for B7, 200 pM.
On to B8, for which the Kd was 1110 pM.
Turning to B9, the dissociation constant Kd stood at 60 pM.
As to B10, the Kd is 190 pM.
For the molecule B11, the dissociation constant Kd was found to be 370 pM.
The same measure, in the same setting: for B12 the value was 10 pM.
As for B13, the Kd came to 420 pM.
Same read-out and setting: as for B14, the figure is 1060 pM.
